In the nanobody polyreactivity screen of Harvey et al. (2022):

Test: yeast display, Sf9 membrane polyspecificity reagent, FACS + sequencing; frameworks hold sequencing errors
Method in brief: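 In a synthetic yeast display library (Saccharomyces cerevisiae BJ5465), nanobody expression was induced with galactose for 36–48 hours. FACS gates were set low and high (top ~1%) using anti-HA fluorescence for expression and streptavidin fluorescence for binding of the Sf9 membrane reagent. Each polyreactivity label is drawn from the gate of origin.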

Row | Sequence | polyreactivity (PSR sort gate)
1 | QVQLVESGGGLVQAGGSLRLSCAASGIIFSYYAMGWYIQAPGKERELVAAISSSGVSTNYADSVKGRFTISRDNAKNTVYLQMNSLKPEDTAVYYCNARGYYWYRPYVNSNGGYWGQGTQVTVSS | high polyreactivity
2 | QVQLVESGGGLVQAGGSLRLSCAASGRIFWYYAMGWYRQAPGKDWELVATITYSGVRTYYADSVKGRFTISRDNAKNSVYLQMNSLKPEDTAVYYCAAVPGASVYGYYWKFGYWGQGTQLTVSS | high polyreactivity
3 | QDQLVESGAGLVQAGGSLRLSCAASGRIFTPYAMGGYRHAPRKERELVAVIRDGSTYFADSVKGRFTISRDNAKNTVYFQMKSLKPEETAGYYCRYDIWVWWSGAYDYWGQGTQVTVSS | low polyreactivity
4 | QVQLVESCRGLVQAGGSLRLICAASGLTFRYYSMGWYRQAPGKERELVASISWCGASTYYADSVKGRFTISRDNAKNTVYLQMISLKPEDTAVYYCNAGYSGSYDYWGQGTQVTVSS | high polyreactivity
5 | QVQLVESGGGLVQAGGSLRLSCAASGRIFSFYSMGWYRQAPAKERELVATISKRAGSTYYADSVKGRFTISRDNAKNTVYLQMNSLKPEDTAVYYCAARKWYYASSRWRDYWGQGTQVTVSS | high polyreactivity
6 | QVQIVESGGGLVQAGGSLRISCAASGRTLRYNTMGWSRKAPGKERELVAAISIRGGSTYYADSVKGRFTISRDNAKYTVYLQMISLKAEDTAVYYCNVVFQKAARIVEVDYWGQGTQVSVSS | high polyreactivity
7 | QVQLVESGGGLFQAGGSLRLSCAATGITFFRYPMGWYRQAPGKERELVAVITRGGTTYYADSVKGRFTISRDNAKNNAYLQINSLKPEDTAVSYCAAKPYYGYDYWGQGTQVTVSW | high polyreactivity
8 | QVQLVESGGGLVQAGGSLRLSCAASGSNFHLYAMGWYRQAPGKERELVADIDLSGGSTYYADSVKGRFTISRDNAKNTVYLQMNSLKPEDTAVYYCGADHVSSLGFDYWGQGTEVTVSS | low polyreactivity
9 | QVQLVESGGGLVQAGGSLRLSCAASGFTFEKNAMGWYRQAPGKERELVAAITSGGSTYYADSVKGRFTISRDNAKNTVYLQMNSLKPEDTAVYYCNAYYTYRFNYWGQGTQVTVSS | high polyreactivity
10 | QVQLVESGGGFVQAGGSLRLSCAASGFIFTKYAMGWYRQAPGKERELVAAIRGSGGSTYYADSVKGRVTISRDNAKNTVYLQMNSLKPEDTAVYYCAAERSLGYDYWGQGTQVTVSS | high polyreactivity
11 | QVQLVESGGGLVQAGVSLRLSCAASGGTFRPYAMGWYRQERGKERELVAAISYTGSTYYADSVKWRFTISRDNAKNTVYLQMNSLKPEDTGVYYCAKDFWYPPRFDYWGQGTQVTVSS | low polyreactivity
12 | HVQLVESAGGLVQAGGSLRVSCAASGRTFVENAMGWYRQAPGKERELVAAITYRGGRTFYADSVKGRFTISLDNAKNTVYLQMNSLTPEETAVYYCNAVRRTGGHGDYWGHGTQVTVSS | high polyreactivity
13 | QVQLVESGGGLVQAGGSLRLSCAASGSIFRFNVMGWYRQAPGKERELVAAITRGDSTNYADSVKGRFTISRDNAKNTVYLQMNSLKPEDTAVYYCAAGYYYYLRDHDYWGQGTQVTVSS | low polyreactivity
14 | QVQLEESGGGLVQAGGSIRLSCAASVSTFVGNAMGWYRKAPGKETEFVATISNSGGRTYYADSVKGRFTISRDNSKNTVYLQMNSLKPEDTAVYFCAADHPAFCPGYSFDYWGQGTQVTVTS | low polyreactivity
15 | QFQLVESGGGILQAGGSLRLSCAASGFIFSSYAMGWYRQAPGKERELVAAISKRGGSTYYADSVKGRFTISRDNAKNTVYLQMNSLKPEDTAVYYCARGSYPYRSFWLTSDYWGQVTQVTVSS | high polyreactivity
16 | QVQLVESGGGLVQAGGSLRLSCAASGRIFPWYAMGWYRQAPGKERELVATISSSGRTNYADSVKGRFTISRDNAKNTVYLQLNSLQPEDTAVYFCAATLYHYWYADFDYWGQGTQVTVSS | high polyreactivity
17 | QVQLVESGGVLVQEGGSLRLSCAASVSIFSRNAMGSYRQAPGKERELVAAISYSGGSTYYADSVKGRLTISRDNAKNTVYLQMNSLKPEDTEVYYCAAYGHHFQGDYNYWGQGTQVTVSS | low polyreactivity
18 | QDQLVESGGGLVQAGGSLRLSCAASARIFPHYPMGWYRQAPGKERELVATITSGGRTNYADSVKGRFTISRDNAKNTVYLQMNSLKPEDTAVYYCAVDTWGSSWYDLFRETSDYWGHGTQVTVSS | low polyreactivity
19 | QVQLVESGGGLVQAGGSLRLSCAASGHIFFYYTMGWYRQAPGKERELVAGITIGGSTNYADSVKGRFTISRDNAKNTVYLEMNSLKPEDTAVYYCNVVKYVFFYSYWEYYYWGQGTQVTVSS | low polyreactivity
20 | QVQLVESGGGLVQAGGSLRLSCAASGFTFGYYAMGWSRQAPGKESELLATITSSGASTYADSVKGRFTISRDNAKNTVYLQMNSLKPEDTAVYYCAADRLPSYWSWYGYDYWGQGTQVTVSS | high polyreactivity
21 | QVQLVESGGGLVQAGCSLRLSCAASGSIFYFYGMGWYRQAPGKERELVASITYSGTSTYYADSVKGRFTISRDNAMITVYLQMNSLKPEDTAVYYCAASFYTVNSWYDSWGQGTQVTVSS | low polyreactivity
22 | QVQLVESGGGLVQAGGSLRLSCAASGITFYGYAMGWYRPAPGKERELVAVITSTARTNYADSVNGRFTISRDNAKNTVYLQMNSLKPEDTAVYYCAAVHSSYSFNYWGQGTQVTVSS | high polyreactivity

Row | Sequence | polyreactivity (PSR sort gate)
23 | QVQIVESGGGLVQAGGSLRLSCAASVFTFGENAMGWYRQAPGKERELVAAITSGDGTSYADSVKGRFTISRDNAKYTVYLQMNSLKPEDTSVYYCAADVGDELYYSTYDYWGQGTQVTVSS | low polyreactivity
24 | QDQLVESGGGLVQEGGSLRLSCAAYGTIFQIYAMGWYIQAPGKERELVAAINSGGISKYADSVKGRFTISRDNAKNSVYLQMNSLTPADTAVYYCAASVDTGRYSVYYHGYTYDYWGQGTQVTVSS | low polyreactivity
25 | QVQLVESGGGLVQAGGSLRLSCAASGRTFYKYAMGWYRQAPGKERELVAAISKSGGRTYYADSVKGRFTISRDNAKNTVYLQLNSLKPEDTAVYYCAAEPFIPDQSRYYYWGQGTQVTVSS | high polyreactivity
26 | QVQLVESGGGLVQAGGSLRLSCAASGRILFFNAMGWYRQAPGKERELVAAISVSGGSTYYADSVKGRFTISRDNAQNTVYLQMNSLKPEDTAVYYCAKGYDFRRRYDYWGQGTQVTVSS | low polyreactivity
27 | QVQLVESGGGLVQAGGSLRLSCAASGRIFYPYAMGWYRQAPGKERELVAAITSGGRTNYADSVKGRFTISRDNAKNTVYLQMNSLKPEDTAVYYCAATRFRHGKRMDYWGQGTQVTVSS | high polyreactivity
28 | QVQLVESGGGLVQAGGSLRLSCAASGYTFARYAMGWYRQATGKERELVAANTSGDRTNYADSVKGRFTISRDNAKNTVYLQMNSLKPEDTAVYYCNATLYSYDASDYWGQGTQVTVSS | low polyreactivity
29 | QVQLVESGGGLVQAGGSLRLSCAASGSIFSWNAMGWYRQAPGKERELVAAISTRGSSTYYADSVKGRFTISRDNAKNTVYLQMNSLKPEDTAVYYCNAARTFPFYWGLRGSQRYDYWGQGTQVTVSS | high polyreactivity
30 | QVQLLESGGGLVQAGGSLRLSCAASGSTFINNAMGWYRQAPGKERELVAAISGNADRTYYADSVKGRFTISRDYAKNTVYLQMISLKPEDTAVYYCNALSLLSDGAASVDQVTFDYWGQGTQVTVSS | low polyreactivity
31 | QVQLVESGGGLVQAGGSLRISCAASGSIFGVNAMGWYRQAPGKERELVASITGGDSTNYADSVKGRFTISRDNAKNTVYLQMNSLKPEDNEVYYCAKDHYYRYEEGDYWGQATQVTVSS | low polyreactivity
32 | QVKLVESAGGLVQAGGSRRLSCAASGSIFRAYAMGWYRQAPGKESELVADISRSGGSTYYADSVKGRFTISRDNAKNNVYLQMNSLIPEDTAVYYCNRLPQYALPYRHNGYWGQGTQVTVSS | low polyreactivity
33 | QVQLVESGGGLVQAGGCLRISCAASGSTFPNYAMGWYREAPGKERELVARISYNVGRTYYADSVKGRFTISRDNAKNTVYLQMNSLKPEDTAVYYCAAGVGWRYRVRWYYSLGDYWGQGTQVTVSS | high polyreactivity
34 | QVQLVESGGGLVQAGGSLRLSCGASGRTFAIYVMGWYRQAPGKERELVAAISRGGSTYYADSVKGRFTISRDNAKNTVYLQMNSLKPEDTAVYYCAAGTGTTSRYYYWGQGTQVTVSS | high polyreactivity
35 | QVQLVESGGGLVQAGASLRLSCAASGLIFYFYAMGWYRQAPGKERELVATIRSSTGSTYYADSVKGRFTISRDNAKNTVYLQMNSLKPEDTAVYYCNAGIKRYEWYQFDYWGQGTQVSVSS | low polyreactivity
36 | QVQLVESGGGLVQAGGSLRLSCAASGRTFEYYAMGWYRQAPGKEREFVAAISRRGDSTYYADSVKGRFTISRDNAKNTVYLQMNSLKPEDTAVYYCAAKSYSARTKYYYWGQGTQVTVSS | high polyreactivity
37 | QVQLLESGGGLVQAGGTLRLSCAASGSIFFRNAMGWYRQAPGKERELVAAITWNGGSTYYADSVKGRFTISRDNAKNTVYLQMNSLKPDDTAVYYCNKYYYYRDSGYWGQGTQVTVSS | high polyreactivity
38 | QVQLVETGGGLVKAGGSLRLSSAASGSIFVYYVMGWYRQAPGKERELVAAINSDGDGTYYADSVKGRFTISRDNAKNTVYLQMNSLKPEDTAVYYCAASAFTGVDTYGYGGQGTQVTVSS | low polyreactivity
39 | QVQHVDTGGGLVQAGGSLRLSCAASGSIFGRYAMGWSRQAPGKERELVASINWNSGSTYYADSVKGRFTISRDNAKYTVYLQMNSLKPEDTAVYYCAAAALGYYGYRGFDYWGQGTQVTVSS | low polyreactivity
40 | QVQLVESGGGLVQAGGSLRLSCASSGRIYVYTMGWYRQAPGKERELVATITRSGGSTYYADSVKGRFTISRDNAKNTVYLQMNSLKPEDTAVYYCNAVGRFTPYSSRREYDYWGQGTQVTVSS | low polyreactivity
41 | QVQLVESGGGLVQAGGSLRLSCAASGFTFPYYAMGWYRQAPGKERELVAAISWSGGSTNYADSVKGRFTISRDNAKNTVYLQMNSLIPEDTAVYYCATLPGYSMDFWGQGSQVTVSS | high polyreactivity
42 | QVQLVESGGGLVQAGGSLRLSCAASRSIFLYYAMGWYRQAPGKERELVAAISYSGSGTYADSVKGRFTISRDNAKNTVYLQMNSLKPEDTAVYYCNVDYGSYSYDYWGQGTQVTVSS | low polyreactivity
43 | QVQLVESGGGLVQAGGSLRLSCAASGITFRGYARGWYRQAPGKERELVASITNTDSTYYADSVKGRFTISRDNAKNTVYLQMNSLKPEDTAVYYCAARRGRKYGYWGQGTQVTVSS | high polyreactivity
